{"source": "patent US20220331423A1", "about": "(WISTAR INSTITUTE OF ANATOMY AND BIOLOGY, published 2022)", "biological_target": "T1, HSV-1 glycoprotein D (gD), non-fused, expressed from AdC68gD (HSV-1, UniProt Q05059 26-394)", "T1 construct": "Complete gD open reading frame (from pRE4) expressed in AdC68gD-infected cells; Tested as detergent cell extract (ELISA) or on and within infected cells; also called native gD; non-fused gD", "T1 sequence (Q05059 26-394)": "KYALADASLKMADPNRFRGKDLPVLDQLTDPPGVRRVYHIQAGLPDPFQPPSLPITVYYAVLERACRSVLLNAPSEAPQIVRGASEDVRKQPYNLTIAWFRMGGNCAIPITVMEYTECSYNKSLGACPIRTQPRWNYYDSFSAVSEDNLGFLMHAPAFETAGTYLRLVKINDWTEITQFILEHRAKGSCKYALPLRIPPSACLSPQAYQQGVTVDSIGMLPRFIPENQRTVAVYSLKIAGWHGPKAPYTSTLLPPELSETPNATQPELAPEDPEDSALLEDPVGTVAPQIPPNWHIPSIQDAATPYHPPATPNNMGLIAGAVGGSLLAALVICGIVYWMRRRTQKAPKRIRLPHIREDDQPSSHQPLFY", "assay": "confocal microscopy of AdC68gD-infected B78-H1/3E5 (human HVEM-EGFP) cells stained with MAb to gD", "data": [{"binder": "human HVEM fused to Enhanced Green Fluorescence Protein, expressed on B78H1/3E5 cells (receptor, whole, on cells; Mouse melanoma cells B78H1/3E5; also called HVEM-EGFP; HVEM on B78-H1/3E5 cells; not shown: Enhanced Green Fluorescence Protein (EGFP)) LPSCKEDEYPVGSECCPKCSPGYRVKEACGELTGTVCEPCPPGTYIAHLNGLSKCLQCQMCDPAMGLRASRNCSRTENAVCGCSPGHFCIVQDGDHCAACRAYATSSPGQRVQKGGTESQDTLCQNCPPGTFSPNGTLEECQHQTKCSWLVTKAGAGTSSSHWVWWFLSGSLVIVIVCSTVGLIICVKRRKPRGDVVKVIVSVQRKRQEAEGEATVIEALQAPPDVTTVAVEETIPSFTGRSPNH", "values": [{"measurement": "binding result", "result": "binds"}]}]}
